This note sets out measurements from patent publication US20220396612A1 (UNIVERSIT DE TOURS, published 2022).

The target of test [1] is T1, virus-like particles (VLPs) of BK polyomavirus VP-1 protein, serotype Ia (BK virus (BKPyV), serotype Ia, UniProt P03088 1-361).
T1 construct: self-assembled native VLPs coated on ELISA plates; also called VLP Ia; BKV VP-1, serotype Ia
T1 chain: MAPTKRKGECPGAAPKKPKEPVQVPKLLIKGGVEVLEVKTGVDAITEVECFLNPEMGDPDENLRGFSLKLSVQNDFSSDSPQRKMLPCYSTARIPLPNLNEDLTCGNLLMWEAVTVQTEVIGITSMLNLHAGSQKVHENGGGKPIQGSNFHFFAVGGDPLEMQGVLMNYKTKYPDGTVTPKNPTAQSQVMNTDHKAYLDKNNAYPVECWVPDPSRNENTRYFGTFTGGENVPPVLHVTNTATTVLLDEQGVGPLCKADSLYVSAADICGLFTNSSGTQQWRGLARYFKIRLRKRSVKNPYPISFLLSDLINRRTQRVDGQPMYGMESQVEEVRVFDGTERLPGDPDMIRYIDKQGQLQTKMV
Kind of test: ELISA on coated VLP; supernatant 1/160.
Description: (§1) To do this, the VLPs produced were deposited at a concentration of 1 μg/mL in PBS and incubated overnight at +4° C. The wells were then blocked for 1 h at +37° C. with a PBS/FCS (phosphate-buffered saline/fetal calf serum) mixture. After dilution in a dilution buffer containing FCS, PBS and Tween® 20, the various hybridoma culture supernatants were added for 1 h at +37° C. The wells were washed four times in a row with Wash Buffer and a secondary anti-mouse antibody coupled to peroxidase was added to the 1:2000 dilution for 1 h at +37° C. The wells were washed four more times and the substrate (OPD (ortho phenylene diamine)+H₂O₂) was added for 30 min at room temperature. A stop solution (H₂SO₄ 4N) was then added and each well was read by measuring the absorbance at 492 nm with a spectrophotometer. The value obtained for the average of the control wells (PBS in the first step) is subtracted from the optical density values obtained for each well.

Test [2] deals with T2, virus-like particles (VLPs) of BK polyomavirus VP-1 protein, serotype Ib2 (BK virus (BKPyV), serotype Ib2, PA …, UniProt P03088 1-362).
T2 construct: native VLPs; also the immunogen; also called VLP Ib2; BK Ib2
T2 chain: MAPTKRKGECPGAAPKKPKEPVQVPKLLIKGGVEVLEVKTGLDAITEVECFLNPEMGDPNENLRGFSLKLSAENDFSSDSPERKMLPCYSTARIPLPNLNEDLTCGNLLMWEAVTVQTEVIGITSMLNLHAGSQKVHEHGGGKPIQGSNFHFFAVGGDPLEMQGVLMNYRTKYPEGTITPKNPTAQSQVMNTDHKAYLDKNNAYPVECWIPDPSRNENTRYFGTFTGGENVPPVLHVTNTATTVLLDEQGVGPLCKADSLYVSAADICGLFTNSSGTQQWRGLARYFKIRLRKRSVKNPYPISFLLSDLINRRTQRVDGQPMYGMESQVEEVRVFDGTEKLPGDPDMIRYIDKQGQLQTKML
Kind of test: ELISA on coated VLP; supernatant 1/160. Background: An ELISA detects its analyte on a solid surface through an enzyme-linked reagent.
Description: as §1

In test [3] the target is T3, virus-like particles (VLPs) of BK polyomavirus VP-1 protein, serotype II (BK virus (BKPyV), serotype II, UniProt P14996 1-362).
T3 construct: native VLPs; also called VLP II
T3 chain: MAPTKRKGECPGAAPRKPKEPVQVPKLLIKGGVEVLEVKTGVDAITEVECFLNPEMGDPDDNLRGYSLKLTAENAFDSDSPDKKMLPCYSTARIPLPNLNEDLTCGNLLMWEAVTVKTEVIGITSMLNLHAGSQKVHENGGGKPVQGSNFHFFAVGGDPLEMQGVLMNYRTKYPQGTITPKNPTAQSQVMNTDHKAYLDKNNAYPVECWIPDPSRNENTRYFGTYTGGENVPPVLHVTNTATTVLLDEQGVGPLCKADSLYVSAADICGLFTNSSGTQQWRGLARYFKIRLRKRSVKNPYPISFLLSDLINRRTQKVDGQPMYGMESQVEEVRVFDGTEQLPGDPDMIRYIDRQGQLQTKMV
Kind of test: ELISA on coated VLP; supernatant 1/160.
Description: as §1

The target in test [4] is T4, virus-like particles (VLPs) of BK polyomavirus VP-1 protein, serotype IV (BK virus (BKPyV), serotype IV, UniProt P14996 1-362).
T4 construct: native VLPs; also called VLP IV
T4 chain: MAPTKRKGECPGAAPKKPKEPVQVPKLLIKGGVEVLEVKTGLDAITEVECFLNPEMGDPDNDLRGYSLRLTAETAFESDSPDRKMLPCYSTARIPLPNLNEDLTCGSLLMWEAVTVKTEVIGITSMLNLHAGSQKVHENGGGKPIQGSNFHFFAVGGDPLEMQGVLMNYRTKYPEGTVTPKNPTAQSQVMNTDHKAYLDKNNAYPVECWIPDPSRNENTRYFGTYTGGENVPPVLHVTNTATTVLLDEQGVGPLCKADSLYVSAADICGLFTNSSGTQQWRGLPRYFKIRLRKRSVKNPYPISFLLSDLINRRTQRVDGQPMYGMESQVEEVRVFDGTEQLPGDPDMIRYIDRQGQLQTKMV
Briefly: ELISA on coated VLP; supernatant 1/160.
Description: as §1

The target of test [5] is T1, virus-like particles (VLPs) of BK …. Kind of test: ELISA on coated VLP; supernatant 1/320.
Description: as §1
Test [6] addresses T2, virus-like particles (VLPs) of BK …. Kind of test: ELISA on coated VLP; supernatant 1/320.
Description: as §1
Test [7] addresses T3, virus-like particles (VLPs) of BK …. Kind of test: ELISA on coated VLP; supernatant 1/320.
Description: as §1
The target in test [8] is T4, virus-like particles (VLPs) of BK …. Briefly: ELISA on coated VLP; supernatant 1/320.
Description: as §1
The target of test [9] is T3, virus-like particles (VLPs) of BK …. Kind of test: ELISA on coated VLP; supernatant 1/1 280.
Description: as §1
For test [10], the target named is T1, virus-like particles (VLPs) of BK …. Briefly: ELISA on not denatured VLP (threshold OD>0.5).
Description: (§2) The wells were then blocked for 1 hour at +37° C. with a PBS/SVF mixture. After dilution in a dilution buffer containing SVF, PBS and Tween® 20, the individual culture supernatants or purified antibodies were added for 1 hour at +37° C. The wells were washed four times in a row with Wash Buffer and a secondary anti-mouse peroxidase antibody was added to the 1/2000 dilution for 1 hour at +37° C. The wells were washed again four times in a row and the substrate was added for 30 minutes at room temperature. A stop solution was added and then each well was read by measuring the absorbance at 492 nm with a spectrophotometer. The value obtained for the average of the control wells (PBS in the first step) was subtracted from the optical density values obtained for each well (detection threshold: OD>0.5).
The target of test [11] is T2, virus-like particles (VLPs) of BK …. Kind of test: ELISA on not denatured VLP (threshold OD>0.5).
Description: as §2
Test [12] concerns the target T3, virus-like particles (VLPs) of BK …. Kind of test: ELISA on not denatured VLP (threshold OD>0.5).
Description: as §2
The target of test [13] is T4, virus-like particles (VLPs) of BK …. Kind of test: ELISA on not denatured VLP (threshold OD>0.5).
Description: as §2

B1: monoclonal antibody ‘H6’ secreted by clone BK6A2H6 (antibody, V domains shown)
VH: EVQLQQSGPELVKPGASVKISCKASGYSFTGYFMNWVKQSHGKSLEWIGRINPYNGDTFYNQKFKGKATLTVDKSSSTAHMELLSLTSEDSAVYYCGSYYYGDYFDYWGQGTTLTVSS
VL: SIVMTQIPKFLLVSEGDRVTITCKASQSVSNDVAWYQQKSGQSPKLLIYYASNRYTGVPDRFTGSGYGTDFTFTISTVQAEDLAVYFCQQDYSSPLTFGAGTKLELKR
Consider B1, for which the “OD 492 nm” value in test [1] amounted to 3.06 OD; in test [2] it was 0.4 OD; in test [3], 0.14 OD; in [4], 3.14 OD; in test [5] it was 3.03 OD; in [6], 0.29 OD. In addition, the “OD 492 nm” value is 0.13 OD in test [7], 2.66 OD in [8] and 0.08 OD in test [9].

B2: monoclonal antibody ‘18A2’ derived from hybridoma 18A2 (antibody, V domains shown)
VH: DVQLQESGPGLVKPSQSLSLTCSVTGYSITSGYYWNWIRQFPGNKLEWMGYISYDGSNNYNPSLKNRISITRDTSKNQFFLKLNSVTTEDTATYYCARWEGTTDYWGQGTTLTVSS
VL: not shown
notes: Mouse hybridoma antibody
For B2, the “OD 492 nm” value came to 3.84 OD in test [10], 0.565 OD in test [11], 1.71 OD in test [12] and 2.99 OD in test [13].

B3: monoclonal antibody ‘F6’ secreted by clone BK6A2F6 (antibody)
heavy: EVQLQQSGPELVKPGASVKISCKASGYSFTGYFMNWVKQSHGKSLEWIGRINPYNGDTFYNQKFKGKATLTVDKSSSTAHMELLSLTSEDSAVYYCGSYYYGDYFDYWGQGTTLTVSSAKTTPPSVYPLAPGSAAQTNSMVTLGCLVKGYFPEPVTVTWNSGSLSSGVHTFPAVLQSDLYTLSSSVTVPSSTWPSETVTCNVAHPASSTKVDKKIVPRDCGCKPCICTVPEVSSVFIFPPKPKDVLTITLTPKVTCVVVDISKDDPEVQFSWFVDDVEVHTAQTQPREEQFNSTFRSVSELPIMHQDWLNGKEFKCRVNSAAFPAPIEKTISKTKGRPKAPQVYTIPPPKEQMAKDKVSLTCMITDFFPEDITVEWQWNGQPAENYKNTQPIMDTDGSYFVYSKLNVQKSNWEAGNTFTCSVLHEGLHNHHTEKSLSHSPGK
light: […]
B3: the “OD 492 nm” value in [1] stood at 3.21 OD; in test [2], 0.4 OD; in test [3], 0.27 OD; in [4], 3.46 OD; in test [5], 3.16 OD; in [6], 0.29 OD. Moreover, the “OD 492 nm” value in test [7] is 0.16 OD; in [8], 3.16 OD; in [9], 0.09 OD; in test [10], 3.94 OD; in [11], 2.7 OD; in test [12] it was 3 OD. The “OD 492 nm” value in test [13] was found to be 0.788 OD.
